Here are results for one substance from US20190262368A1.

The target in assay [1] is human LOX1 on cells (human LOX1 transfected CHO TREX cells; endogenous on HAECs) (human) (UniProt P78380). Put plainly: row label missing; by the order of Table 5 taken as AGE BSA/hLOX1 CHO competition (FMAT, DyLight 649 AGE-BSA as competitor), Mean.
Assay [2] shares this target. Description: cell-based or functional assay.
The target is the same in assay [3]. Description: row label missing; by the order of Table 5 taken as oxLDL/hLOX1 CHO competition (FMAT, DyLight 649 oxLDL as competitor), Mean.
Assay [4] concerns the target recombinant human LOX1 (R&D Systems) (human) (UniProt P78380). Put plainly: row label missing; by the order of Table 5 taken as CRP/hLOX1 competition (plate assay, biotin CRP as competitor, immobilised recombinant hLOX1), Mean.
For assay [5], the target named is human LOX1 SNP K167N variant on transfected CHO TREX cells (human) (UniProt P78380). Put plainly: row label missing; by the order of Table 5 taken as oxLDL/K167N hLOX1 CHO competition (FMAT, DyLight 649 oxLDL as competitor), Mean.

As for “23C11, commercially available mouse anti-LOX-1 antibody”, the IC50 (usually the point on the concentration scale where inhibition reaches its midpoint) is 1.15 nM in assay [1], 2.2 nM in assay [3], 11.1 nM in assay [4] and 1.31 nM in assay [5]. Also, in assay [2], the IC50 (Mean) of oxLDL internalisation in hLOX1 CHO cells; row label missing, taken by the order of Table 5 was 2.85 nM. In assay [2], this substance yielded an IC50 (Mean) of oxLDL-dependent ROS generation in hLOX1 CHO cells; row label missing, taken by the order of Table 5 of 10.1 nM.
